Holding throughout (assay): cell-based or functional assay
The target of test [1] is dipeptidyl peptidase IV (DPPIV) (UniProt P27487).
The target of test [2] is myc-His tagged DPRP-1 (expressed from pcDNA-MycHis-DPRP1) (human) (UniProt Q6V1X1).
The target of test [3] is myc-His tagged DPRP-2 (expressed from pcDNA-MycHis-DPRP2) (human) (UniProt Q86TI2).
Sequence of myc-His tagged DPRP-2 (expressed from pcDNA-MycHis-DPRP2) (human) (Q86TI2 whole entry): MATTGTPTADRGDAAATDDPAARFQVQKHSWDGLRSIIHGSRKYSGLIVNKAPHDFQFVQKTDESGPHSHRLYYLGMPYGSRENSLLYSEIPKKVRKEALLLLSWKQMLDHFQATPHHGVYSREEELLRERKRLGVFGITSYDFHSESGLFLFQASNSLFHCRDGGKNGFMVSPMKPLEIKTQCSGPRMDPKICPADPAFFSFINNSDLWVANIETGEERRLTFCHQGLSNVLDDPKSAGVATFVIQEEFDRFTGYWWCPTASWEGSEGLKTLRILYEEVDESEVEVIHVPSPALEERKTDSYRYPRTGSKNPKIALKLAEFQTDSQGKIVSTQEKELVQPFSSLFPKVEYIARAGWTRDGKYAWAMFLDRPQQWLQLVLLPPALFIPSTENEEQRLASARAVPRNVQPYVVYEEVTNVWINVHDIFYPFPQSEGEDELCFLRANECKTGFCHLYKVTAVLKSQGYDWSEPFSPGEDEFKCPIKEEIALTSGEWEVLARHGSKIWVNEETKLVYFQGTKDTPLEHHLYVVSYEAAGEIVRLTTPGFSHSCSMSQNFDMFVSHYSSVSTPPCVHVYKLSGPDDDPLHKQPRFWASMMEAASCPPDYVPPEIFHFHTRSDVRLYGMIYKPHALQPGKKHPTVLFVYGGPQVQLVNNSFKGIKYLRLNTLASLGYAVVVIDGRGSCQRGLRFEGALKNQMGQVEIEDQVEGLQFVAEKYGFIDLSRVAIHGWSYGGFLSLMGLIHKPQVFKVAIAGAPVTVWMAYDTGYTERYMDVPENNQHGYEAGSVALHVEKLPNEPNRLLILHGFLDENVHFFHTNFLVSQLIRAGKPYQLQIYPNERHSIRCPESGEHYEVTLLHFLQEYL

Sequence of myc-His tagged DPRP-1 (expressed from pcDNA-MycHis-DPRP1) (human) (Q6V1X1 17-898): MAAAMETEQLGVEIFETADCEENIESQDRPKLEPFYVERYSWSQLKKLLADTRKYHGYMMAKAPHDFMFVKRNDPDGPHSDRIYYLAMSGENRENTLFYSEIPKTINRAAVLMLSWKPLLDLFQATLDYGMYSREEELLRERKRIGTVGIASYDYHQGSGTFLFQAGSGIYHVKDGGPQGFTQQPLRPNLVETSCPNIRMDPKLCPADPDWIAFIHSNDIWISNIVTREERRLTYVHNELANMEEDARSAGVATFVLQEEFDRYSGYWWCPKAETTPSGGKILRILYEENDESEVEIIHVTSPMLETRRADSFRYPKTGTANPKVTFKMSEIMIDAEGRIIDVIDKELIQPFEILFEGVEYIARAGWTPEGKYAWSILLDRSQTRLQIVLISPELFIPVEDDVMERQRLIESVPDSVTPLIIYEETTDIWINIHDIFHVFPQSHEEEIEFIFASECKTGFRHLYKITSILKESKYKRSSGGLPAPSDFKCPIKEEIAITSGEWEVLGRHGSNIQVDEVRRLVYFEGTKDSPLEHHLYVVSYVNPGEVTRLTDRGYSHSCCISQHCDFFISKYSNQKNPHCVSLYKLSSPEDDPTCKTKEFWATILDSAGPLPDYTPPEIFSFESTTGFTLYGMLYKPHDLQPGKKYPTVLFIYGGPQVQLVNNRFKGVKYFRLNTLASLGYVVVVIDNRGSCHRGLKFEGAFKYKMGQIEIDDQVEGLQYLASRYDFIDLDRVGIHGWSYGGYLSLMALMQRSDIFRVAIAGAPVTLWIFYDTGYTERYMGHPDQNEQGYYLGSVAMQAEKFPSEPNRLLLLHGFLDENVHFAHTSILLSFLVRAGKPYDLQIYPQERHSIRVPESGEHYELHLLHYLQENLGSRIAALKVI
Sequence of dipeptidyl peptidase IV (DPPIV) (P27487 39-766 limits assumed): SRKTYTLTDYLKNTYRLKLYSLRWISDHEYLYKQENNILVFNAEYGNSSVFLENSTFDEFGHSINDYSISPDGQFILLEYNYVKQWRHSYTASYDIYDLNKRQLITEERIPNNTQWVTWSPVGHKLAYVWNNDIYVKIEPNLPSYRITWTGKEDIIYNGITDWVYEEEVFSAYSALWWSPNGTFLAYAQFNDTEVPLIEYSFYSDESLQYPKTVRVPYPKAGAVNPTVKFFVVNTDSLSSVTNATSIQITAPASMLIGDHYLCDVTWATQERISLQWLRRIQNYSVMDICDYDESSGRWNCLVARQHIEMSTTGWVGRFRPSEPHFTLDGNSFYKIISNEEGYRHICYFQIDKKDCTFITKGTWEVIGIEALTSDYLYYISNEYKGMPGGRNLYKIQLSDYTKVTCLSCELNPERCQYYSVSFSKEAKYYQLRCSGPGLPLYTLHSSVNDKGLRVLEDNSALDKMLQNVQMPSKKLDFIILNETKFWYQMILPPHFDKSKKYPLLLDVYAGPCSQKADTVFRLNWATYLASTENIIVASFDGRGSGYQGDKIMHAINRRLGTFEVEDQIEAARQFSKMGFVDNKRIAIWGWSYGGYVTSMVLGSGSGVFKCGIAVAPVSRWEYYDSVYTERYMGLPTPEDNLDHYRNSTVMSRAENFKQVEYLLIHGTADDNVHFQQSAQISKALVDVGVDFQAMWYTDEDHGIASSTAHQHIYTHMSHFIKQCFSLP

With Pepstatin (peptide), the Residual activity (% of control), Ala-Pro-AMC cleavage, inhibitor at 2 µg/ml was 93.5 % of control in test [1], 97.3 % of control in test [2] and 95 % of control in test [3].
Take Leupeptin (peptide): the Residual activity (% of control), Ala-Pro-AMC cleavage, inhibitor at 50 µg/ml in test [1] is 90.7 % of control; in test [2] it was 91.1 % of control; in test [3], 90.4 % of control.
